Assay results published in patent publication US20260250711A1 (Alexion, published 2026).

Target: T1, human sortilin receptor (SORT1), recombinant protein (human, UniProt Q99523 78-755, limits assumed)
T1 construct: Recombinant protein; also called sortilin 1
T1 sequence (looked up): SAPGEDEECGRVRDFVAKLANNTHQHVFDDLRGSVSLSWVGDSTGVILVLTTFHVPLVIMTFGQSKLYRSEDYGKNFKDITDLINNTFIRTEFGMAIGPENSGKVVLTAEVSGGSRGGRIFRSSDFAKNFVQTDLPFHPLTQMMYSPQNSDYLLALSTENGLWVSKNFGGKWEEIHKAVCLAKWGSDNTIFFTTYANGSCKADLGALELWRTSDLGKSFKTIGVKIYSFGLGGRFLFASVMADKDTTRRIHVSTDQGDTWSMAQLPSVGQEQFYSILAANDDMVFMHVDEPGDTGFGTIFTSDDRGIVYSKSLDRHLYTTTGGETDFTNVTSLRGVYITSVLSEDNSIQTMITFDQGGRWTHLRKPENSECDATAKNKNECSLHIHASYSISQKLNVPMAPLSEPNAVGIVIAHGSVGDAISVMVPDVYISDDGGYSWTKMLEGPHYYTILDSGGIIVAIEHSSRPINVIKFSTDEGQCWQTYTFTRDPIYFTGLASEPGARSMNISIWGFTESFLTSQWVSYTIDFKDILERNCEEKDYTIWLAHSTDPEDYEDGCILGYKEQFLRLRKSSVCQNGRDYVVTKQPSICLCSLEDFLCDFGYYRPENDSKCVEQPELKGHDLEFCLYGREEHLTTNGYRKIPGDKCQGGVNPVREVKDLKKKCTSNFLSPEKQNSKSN
Assay: Biacore (SPR), His-tagged PGRNΔ3 over immobilized human sortilin

binding result: no binding
B1: recombinant human His-tagged progranulin lacking the final three carboxy-terminal amino acids (PGRNΔ3) (ligand)
chain: TRCPDGQFCPVACCLDPGGASYSCCRPLLDKWPTTLSRHLGGPCQVDAHCSAGHSCIFTVSGTSSCCPFPEAVACGDGHHCCPRGFHCSADGRSCFQRSGNNSVGAIQCPDSQFECPDFSTCCVMVDGSWGCCPMPQASCCEDRVHCCPHGAFCDLVHTRCITPTGTHPLAKKLPAQRTNRAVALSSSVMCPDARSRCPDGSTCCELPSGKYGCCPMPNATCCSDHLHCCPQDTVCDLIQSKCLSKENATTDLLTKLPAHTVGDVKCDMEVSCPDGYTCCRLQSGAWGCCPFTQAVCCEDHIHCCPAGFTCDTQKGTCEQGPHQVPWMEKAPAHLSLPDPQALKRDVPCDNVSSCPSSDTCCQLTSGEWGCCPIPEAVCCSDHQHCCPQGYTCVAEGQCQRGSEIVAGLEKMPARRASLSHPRDIGCDQHTSCPVGQTCCPSLGGSWACCQLPHAVCCEDRQHCCPAGYTCNVKARSCEKEVVSAQPATFLARSPHVGVKDVECGEGHFCHDNQTCCRDNRQGWACCPYRQGVCCADRRHCCPAGFRCAARGTKCLRREAPRWDAPLRDPALR
notes: also called PGRNDel3; progranulinΔ3; not shown: HIS-tag fused to the N-terminal part of the protein
